Laboratory results from patent publication US6242195.

What was measured:
[1] = target: C1q (human) (UniProt P02745); assay: C1q binding ELISA, antibody coated
[2] = target: CD20 antigen (Homo sapiens (Human)) (UniProt P11836)
[3] = target: C1q (human) (UniProt P02745)
[4] = target: CD20 antigen (Homo sapiens (Human)) (UniProt P11836); assay: flow cytometry on WIL2-S cells, EC50 against C2B8 reference
[5] = target: C1q (human) (UniProt P02745); assay: C1q binding ELISA, antibody coated, up to 100 µg/ml
[6] = target: FcγRIIb α subunit ECD-6-His-GST fusion protein (Homo sapiens (Human)) (UniProt P31994); assay: ELISA, E27:chimeric IgE:VEGF complex on coated receptor
[7] = target: FcγRIIa α subunit ECD-6-His-GST fusion protein (Homo sapiens (Human)) (UniProt P12318); assay: as above
[8] = target: FcγRIIIa α subunit ECD-6-His-GST fusion protein (Homo sapiens (Human)) (UniProt P08637); assay: as above
Chain of FcγRIIIa α subunit ECD-6-His-GST fusion protein (Homo sapiens (Human)) (P08637 17-208): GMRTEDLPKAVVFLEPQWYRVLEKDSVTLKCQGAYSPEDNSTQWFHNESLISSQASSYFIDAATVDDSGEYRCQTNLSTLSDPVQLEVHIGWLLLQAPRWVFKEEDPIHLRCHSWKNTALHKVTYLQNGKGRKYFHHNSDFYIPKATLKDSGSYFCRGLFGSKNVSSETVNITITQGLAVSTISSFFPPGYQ

[9] = target: FcγRI α subunit-GST fusion (Homo sapiens (Human)) (UniProt P12314); assay: ELISA, monomeric IgG on coated FcγRI α subunit-GST
Chain of FcγRI α subunit-GST fusion (Homo sapiens (Human)) (P12314 16-292): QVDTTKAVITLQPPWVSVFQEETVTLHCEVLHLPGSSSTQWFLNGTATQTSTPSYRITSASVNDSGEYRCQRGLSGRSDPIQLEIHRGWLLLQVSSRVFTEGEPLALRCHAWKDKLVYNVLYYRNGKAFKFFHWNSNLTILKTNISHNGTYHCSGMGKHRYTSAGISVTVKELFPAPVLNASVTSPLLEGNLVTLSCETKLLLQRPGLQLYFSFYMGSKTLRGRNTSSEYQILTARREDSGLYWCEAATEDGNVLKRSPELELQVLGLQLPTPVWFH

CD20 binding, percentage of the wild type (% of wild type) [4]	binding, percentage of the wild type (% of wild type) [6]	binding, percentage of the wild type (% of wild type) [7]	binding, percentage of the wild type (% of wild type) [8]	binding, percentage of the wild type (% of wild type) [9]	Substance	further results
89					C2B8 mutant E318A (antibody)	decrease in binding to C1q against wild type C2B8 [1]: 30%; CDC, percentage of the wild type (% of wild type) [2]: 108; CDC, percentage of the wild type (% of wild type) [3]: 108
102					C2B8 mutant K320A (antibody)	CDC, percentage of the wild type (% of wild type) [2]: 108; CDC, percentage of the wild type (% of wild type) [3]: 108
112					C2B8 mutant P329A (antibody)	
103					C2B8 mutant P331A (antibody)	fold lower binding to C1q than wild type C2B8 [5]: 60 fold lower
	106	113	104	93	E27 anti-IgE antibody, Fc mutant E318A	
	83		72	102	E27 anti-IgE antibody, Fc mutant K320A	
	101	109			E27 anti-IgE antibody, Fc mutant K322A	
			85	104	E27 anti-IgE antibody, Fc mutant P329A	
	58	86	73	74	E27 anti-IgE antibody, Fc mutant P331A	
